Article PMC6096924, “Mechanism of activation of the BNLF2a immune evasion gene of Epstein-Barr virus by Zta”

B1: BNLF2a ZRE4 (dsDNA)
DNA 1: TCACCTTAACTGGCACACACTCCCTTA
DNA 2: TAAGGGAGTGTGTGCCAGTTAAGGTGA
B2: BNLF2a ZRE2 (dsDNA)
DNA 1: CACCTGTTGTTGACACATTCTTTGCGC
DNA 2: GCGCAAAGAATGTGTCAACAACAGGTG
B3: BNLF2a ZRE3 (dsDNA)
DNA 1: CTTTCCATCTTGTGCCAATACACATTT
DNA 2: AAATGTGTATTGGCACAAGATGGAAAG
B4: BNLF2a ZRE1me (CpG-methylated) (dsDNA)
DNA 1: ACACCTGTCCTCGCTCATCTTTCCACA
DNA 2: TGTGGAAAGATGAGCGAGGACAGGTGT
modifications: 5-methyl-C (printed meC) at C12 of strand 1 and C15 of strand 2
B5: BNLF2a ZRE5 (dsDNA)
DNA 1: TAAGCTACTATGACTAACCTTTCTTTA
DNA 2: TAAAGAAAGGTTAGTCATAGTAGCTTA
B6: BNLF2a ZRE1 (dsDNA)
DNA 1: ACACCTGTCCTCGCTCATCTTTCCACA
DNA 2: TGTGGAAAGATGAGCGAGGACAGGTGT

Legend:
Conditions in all cases: protein: recombinant; tags: His, GST (fusion); chain copies: 2; label: IR-800; blunt
[1] = biological target: T1, His-GST-Zta (DNA binding and dimerization region) (Epstein-Barr virus, UniProt P03206 168-245); experiment: EMSA
[2] = biological target: T1, His-GST-Zta (DNA binding and …); experiment: EMSA; highest binding of the five ZREs
[3] = biological target: T1, His-GST-Zta (DNA binding and …); experiment: EMSA; CpG methylation; binding increased vs unmethylated ZRE1 (P<=0.01)

T1 sequence (P03206 168-245): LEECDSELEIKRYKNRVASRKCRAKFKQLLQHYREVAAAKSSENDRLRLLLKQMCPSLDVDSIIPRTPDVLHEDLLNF

Binder	binding result [1]	other results
B1	binds	
B2		binding result [2]: binds
B3	binds	
B4		binding result [3]: binds
B5	binds	
B6	binds	
